The values that follow come from paper PMC2916699 (Journal of molecular biology, 2009).

Where no end group is shown, it is not given here. The star is where a group is joined. Dansyl = CN(C)c1cccc2c(S(=O)(=O)*)cccc12

The Kd is a measure of binding affinity in units of concentration. Higher therefore signals a looser complex.

First the molecules themselves.
B1: dansyl-TKCIVA (peptide)
peptide: Dansyl-TKCIVA
B2: dansyl-TKCLTS (peptide)
peptide: Dansyl-TKCLTS
B3: dansyl-TKCAVQ (peptide)
peptide: Dansyl-TKCAVQ
B4: dansyl-TKCITQ (peptide)
peptide: Dansyl-TKCITQ
B5: dansyl-TKCTMS (peptide)
peptide: Dansyl-TKCTMS
B6: dansyl-TKCSLM (peptide)
peptide: Dansyl-TKCSLM
B7: dansyl-TKCNLQ (peptide)
peptide: Dansyl-TKCNLQ
B8: dansyl-TKCNIM (peptide)
peptide: Dansyl-TKCNIM
B9: dansyl-TKCYVM (peptide)
peptide: Dansyl-TKCYVM
B10: dansyl-TKCGIM (peptide)
peptide: Dansyl-TKCGIM
B11: dansyl-TKCLVM (peptide)
peptide: Dansyl-TKCLVM
B12: dansyl-TKCSIS (peptide)
peptide: Dansyl-TKCSIS
B13: dansyl-TKCSIM (peptide)
peptide: Dansyl-TKCSIM
B14: dansyl-TKCSLG (peptide)
peptide: Dansyl-TKCSLG
B15: dansyl-TKCTLQ (peptide)
peptide: Dansyl-TKCTLQ
B16: dansyl-TKCSLC (peptide)
peptide: Dansyl-TKCSLC
modifications: cysteine pairing not given here
B17: dansyl-TKCRIS (peptide)
peptide: Dansyl-TKCRIS
B18: dansyl-TKCVVT (peptide)
peptide: Dansyl-TKCVVT
B19: dansyl-TKCTKF (peptide)
peptide: Dansyl-TKCTKF

In the assay the target is protein farnesyltransferase (FTase), wild type (UniProt Q04631 1-377; Q02293 1-437). Description: fluorescence polarisation. In general terms: In fluorescence polarisation assays a small probe gives low polarisation when free and higher when bound to something large.
B1 yielded a dissociation constant Kd of 5 ± 2 nM. Take B2: binding was put at a Kd of 5 ± 1 nM.

The molecule B3 yielded a Kd of 13 ± 3 nM. B4 yielded a dissociation constant Kd of 3.6 ± 0.8 nM. B5 came in with an equilibrium dissociation constant (Kd) of 6 ± 2 nM. As to B6, the Kd is 8 ± 2 nM. Turning to B7, the Kd was determined as 8 ± 1 nM. Molecule B8 registered a dissociation constant Kd of 5 ± 1 nM. The figure for B9 is 12 ± 4 nM; for B10 it is 3.6 ± 0.7 nM. B11 displayed a Kd of 6 ± 2 nM. The figure for B12 is 3.4 ± 0.8 nM. On to B13, for which the affinity, expressed as Kd, was 6 ± 2 nM. Turning to B14, binding was characterised by a dissociation constant (Kd) of 3.4 ± 0.7 nM. B15 showed a Kd of 7 ± 1 nM. In turn, B16 registered a Kd of 5 ± 2 nM. In the case of B17, the Kd is 12 ± 2 nM.

Turning to B18, the affinity, expressed as Kd, was 7 ± 3 nM. B19 had a Kd of 6 ± 1 nM.
